Measured values: patent US7358353B2, “Nucleic acid and corresponding protein named 158P1D7 useful in the treatment and detection of bladder and other cancers” (Agensys, Inc., priority 2000, dated 2008)

Biological target: T1, 158P1D7 protein (Homo sapiens, UniProt Q9H5Y7)
T1 construct: from tissue; host or cells: formalin fixed, paraffin embedded tumor tissue from patients (bladder transitional cell carcinoma, breast ductal carcinoma, lung carcinoma)
Experiment: Immunohistochemistry of cancer patient specimens with anti-158P1D7 MAb (Table LVIII)
Text: FIG. 36. Detection of 158P1D7 protein by immunohistochemistry in various cancer patient specimens. Tissue was obtained from patients with bladder transitional cell carcinoma, breast ductal carcinoma and lung carcinoma. […] (C) breast infiltrating ductal carcinoma, moderately differentiated, (D) breast infiltrating ductal carcinoma, moderate to poorly differentiated, (E) lung squamous cell carcinoma, (F) lung adenocarcinoma, well differentiated.
The sections were dewaxed, rehydrated and treated with antigen retrieval solution (Antigen Retrieval Citra Solution; BioGenex, 4600 Norris Canyon Road, San Ramon, Calif., 94583) at high temperature. Sections were then incubated in mouse monoclonal anti-158P1D7 antibody, M15-68(2)22, for 3 hours. The slides were washed three times in buffer and further incubated with DAKO EnVision+™ peroxidase-conjugated goat anti-mouse immunoglobulin secondary antibody (DAKO Corporation, Carpenteria, Calif.) for 1 hour. The sections were then washed in buffer, developed using the DAB kit (SIGMA Chemicals), counterstained using hematoxylin, and analyzed by bright field microscopy. […] 49.3% of bladder transitional cell carcinoma samples tested were positive for 158P1D7 (Table LVIII).

[1] = Breast Carcinoma patient specimens
[2] = Lung Carcinoma patient specimens

158P1D7 protein
% No. Positive (Bladder TCC patient specimens): 49.3% | Number Positive (Bladder TCC patient specimens): 35 | % No. Positive [1]: 90.9% | Number Positive [1]: 11 | % No. Positive [2]: 23.1% | Number Positive [2]: 26
